B1: GST-HA-ATG16L1-320–607 (recombinant WD40 domain fused to GST and the HA tag) [human] / TMEM59 263–281 peptide, wild type (19-amino acid peptide that includes the ATG16L1-binding motif) [modified: Immobilised through the N-terminus by a … (parent complex)
chain 1: AHDGEVNAVQFSPGSRLLATGGMDRRVKLWEVFGEKCEFKGSLSGSNAGITSIEFDSAGSYLLAASNDFASRIWTVDDYRLRHTLTGHSGKVLSAKFLLDNARIVSGSHDRTLKLWDLRSKVCIKTVFAGSSCNDIVCTEQCVMSGHFDKKIRFWDIRSESIVREMELLGKITALDLNPERTELLSCSRDDLLKVIDLRTNAIKQTFSAPGFKCGSDWTRVVFSPDGSYVAAGSAEGSLYIWSVLTGKVEKVLSKQHSSSINAVAWSPSGSHVVSVDKGCKAVLWAQY
chain 2: TAVEQYVPSEKLSIYGDLE
B2: GST-HA-ATG16L1-231–607 T300, purified from human cells [human] / TMEM59 263–281 peptide, wild type (19-amino acid peptide that includes the ATG16L1-binding motif) [modified: Immobilised through the N-terminus by a long spacer (Tds). Some … (parent complex)
chain 1: PLPVEQDDDIEVIVDETSDHTEETSPVRAISRAATKRLSQPAGGLLDSITNIFGRRSVSSFPVPQDNVDTHPGSGKEVRVPATALCVFDAHDGEVNAVQFSPGSRLLATGGMDRRVKLWEVFGEKCEFKGSLSGSNAGITSIEFDSAGSYLLAASNDFASRIWTVDDYRLRHTLTGHSGKVLSAKFLLDNARIVSGSHDRTLKLWDLRSKVCIKTVFAGSSCNDIVCTEQCVMSGHFDKKIRFWDIRSESIVREMELLGKITALDLNPERTELLSCSRDDLLKVIDLRTNAIKQTFSAPGFKCGSDWTRVVFSPDGSYVAAGSAEGSLYIWSVLTGKVEKVLSKQHSSSINAVAWSPSGSHVVSVDKGCKAVLWAQY
chain 2: TAVEQYVPSEKLSIYGDLE

Variants of: B1
Experiment: peptide microarray; probe expressed in bacteria; mean ± s.d., n=9 replicas; parent: 100; read off a plot

chain 2 Y6A, chain 2 E10A, chain 2 Y15A, chain 2 L18A was tested, and the percent of parent was ~2.5 % of WT peptide (OD635, normalized values).

Variants of: B2
Experiment: peptide microarray; probe purified from human cells; mean ± s.d., n=9 replicas; parent: 100; read off a plot

In order of rising percent of parent:
1. chain 2 Y6A, chain 2 E10A, chain 2 Y15A, chain 2 L18A  ~3 % of WT peptide (OD635, normalized values)
2. chain 2 Y15A  ~10 % of WT peptide (OD635, normalized values)
3. chain 2 L18A  ~19 % of WT peptide (OD635, normalized values)
4. chain 2 Y6A  ~45 % of WT peptide (OD635, normalized values)
5. chain 2 K11A  ~96 % of WT peptide (OD635, normalized values)
6. chain 2 E10A  ~130 % of WT peptide (OD635, normalized values)
7. chain 2 V7A  ~140 % of WT peptide (OD635, normalized values)
8. chain 2 G16A  ~160 % of WT peptide (OD635, normalized values)

Variants of: B2
Experiment: peptide microarray; probe purified from human cells; mean ± s.d., n=9 replicas; parent: 9.3e+03; read off a plot

chain 2 Y6A, chain 2 E10A, chain 2 Y15A, chain 2 L18A was tested, and the response was ~400 a.u. (OD635).

Variants of: B2
Experiment: peptide microarray; probes purified from human cells; mean ± s.d., n=54; values normalised to the A300 ligand (= 100); parent: 160; read off a plot

With chain 1 T70A the response was ~100 OD635, normalized values (% of the A300 ligand signal).
